Measurements from KR20200072008A.
Numbering of substitutions follows the chain as printed.

B1: D2 (antibody, V domains shown)
VH: DVKLQESGPGLVKPSQSLSLTCSVTGYSITSGYYWNWIRQFPGNKLEWMGYIRYDGSNNYNPSLKNRISITRDTSKNQFFLKLNSVTTEDTASYYCARDRDSSYYFDYWGQGTALTVSS
VL: DIVMTQSSSYLSVSLGGRVTITCKASDHINNWLAWYQQKPGNAPRLLISDTTSLETGVPSRFSGSGSGKDYTLSITSLQTEDVATYYCQQYWSAPPTFGGGTKLEIK
B2: C4 (antibody, V domains shown)
VH: DVKLQESGPGLVKPSQSLSLTCTVTGYSITSDYAWNWIRQFPGNKLEWMGYISYSVGTRYNPSLKSRISITRDTSKNQFFLLLKSVTNEDTATYFCARKGEYGFAYWGQGTLVTVSA
VL: DIVMTQSPASLAVSLGQRATISCRASKSVSTSGYSYMHWYQQKPGQPPKLLIYLASNLESGVPARFSGSGSGTDFTLNIHPVEEEDAATYYCQHSRELPLTFGAGTKLELK
B3: C16 (antibody, V domains shown)
VH: EVQLQQSGAELARPGASVQMSCKAFGYTFTNYTMHWVRQRPGQGLEWIGFINPSSDYTNYNQKFKDKATLSADKSSSTAYMQLSSLTSEDSAVYYCARRIFYNGRTYAAMDYWGQGTSVTVSS
VL: B2 VL with T31S
B4: C7 (antibody, V domains shown)
VH: QVQLVETGGGLVQPKGSLKLSCAASGFTFNTNAMNWVRQAPGKGLEWVARIRSKSNNYATYYADSVKDRFTISRDDSQSLLYLQMNNLKTEDTAMYYCVYGRSYGGLSYWGQGTLVTVSA
VL: B2 VL with T31S
B5: C24 (antibody, V domains shown)
VH: EVKLVESGGGLVQPKGSLKLSCAASGYTFNTYAMNWVRQAPGKGLEWVARIRSKSNNYTTYYADSVKDRFTISRDDSQSMLYLQINNLKTEDTAMYYCVGQILYYYVGSPAWFAYWGQGTLVTVSA
VL: B2 VL with Y53F, L100W, A104G, L110I
B6: C14 (antibody, V domains shown)
VH: B4 VH with Q1E, Q3K, T7S, N56D, Q78P, L80M, S108G
VL: B2 VL with M4L, M37V
B7: D3 (antibody, V domains shown)
VH: EVQLEESGGGLVQPGGSLKLSCAASGFTFSNYGMSWVRQTPDKRLELVATINSNGGTTYYPDSVKGRFTISRDNAKNTLYLQMSSLKSEDSAMYYCARDRDAMDYWGQGTSVTVSS
VL: DVLMTQTPLSLPVSLGDQASISCRSSQSIVNSHGNTYLEWYLQKPGQSPKLLIYKVSNRFSGVPDRFSGSGSGTDFTLKISRVEAEDLGVYYCFQGSHVPWTFGGGTKLEIK
B8: B4 (antibody, V domains shown)
VH: EVKLVESGGGLVKPGGSLKLSCAASGFTFSNYGMSWVRQTPEKRLEWVATISSGGSYTYYPDSVKGRFTISRDNAKNTLYLQMSSLRSEDTAMYYCARHEGGGNPYFDYWGQGTTLTVSS
VL: B7 VL with I29L, N31H, H33N, E39H, Y92F, F94S, G96N, S97T, H98L

Columns and labels:
[1] = molecular target: GST-SNAP25 197 (UniProt P60880)
[2] = molecular target: GST-SNAP25 FL (UniProt P60880)
[3] = molecular target: GST-SNAP25 197 (UniProt P60880); assay: direct ELISA; A450 on GST-SNAP25 197 divided by A450 on GST-SNAP25 FL

GST-SNAP25 FL, sequence (P60880 whole entry): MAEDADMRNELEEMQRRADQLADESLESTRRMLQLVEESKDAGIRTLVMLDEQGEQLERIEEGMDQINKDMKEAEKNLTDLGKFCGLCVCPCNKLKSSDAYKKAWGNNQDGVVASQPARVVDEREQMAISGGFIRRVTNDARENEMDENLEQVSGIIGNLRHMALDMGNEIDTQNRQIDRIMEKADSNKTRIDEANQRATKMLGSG
GST-SNAP25 197, sequence (P60880 1-197 limits assumed): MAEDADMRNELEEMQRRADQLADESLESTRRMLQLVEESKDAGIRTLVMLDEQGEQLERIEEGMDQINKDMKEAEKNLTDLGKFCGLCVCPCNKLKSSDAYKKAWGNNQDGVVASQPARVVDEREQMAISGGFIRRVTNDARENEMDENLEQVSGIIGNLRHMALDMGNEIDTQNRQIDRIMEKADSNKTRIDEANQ

| Binder | A450 with SNAP25 197 [1] | A450 with SNAP25 FL [2] | Ratio 197/206 [3] |
| --- | --- | --- | --- |
| B1 | 0.048 | 1.45 | 0.03 |
| B2 | 0.919 | 0.001 | 919 |
| B3 | 0.996 | 0.001 | 996 |
| B4 | 1.2 | 0.001 | 1040 |
| B5 | 0.973 | 0.001 | 973 |
| B6 | 0.953 | 0.001 | 953 |
| B7 | 1.62 | 0.125 | 12.9 |
| B8 | 1.8 | 2.16 | 0.83 |
